Results published in article PMC7022778.

Target: catalase from Serratia sp. strain I1P (Serratia sp. strain I1P)
Assay: SEC; Superdex-200 in 50 mM Tris HCl pH 8.0 with 0.2 M NaCl, calibrated with standard proteins; native apparent mass compared with the subunit mass by SDS-PAGE

stoichiometry N: 4
Substance: catalase from Serratia sp. strain I1P (enzyme)
